Test results from patent US20220403031A1.

Experiments:
[1] = target: 4-1BB.his (Homo sapiens (Human)) (UniProt Q07011); experiment: non-specific binding ELISA; antigen coated at 2 ug/mL, antibody at 10 ug/ml
[2] = target: CD147.his; experiment: as above
[3] = target: CD22.his; experiment: as above
[4] = target: CD3.his; experiment: as above
[5] = target: CD40; experiment: as above
[6] = target: CTLA4.his; experiment: as above
[7] = target: FGFR.his; experiment: as above
[8] = target: Factor VIII; experiment: as above
[9] = target: HER3.his (Homo sapiens (Human)) (UniProt P21860); experiment: as above
[10] = target: OX40.his; experiment: as above
[11] = target: PD-1.his (Homo sapiens (Human)) (UniProt Q15116); experiment: as above
[12] = target: VEGF.his; experiment: as above
[13] = target: human serum Albumin (human) (UniProt P02768); experiment: as above
[14] = target: 4-1BB.his (Homo sapiens (Human)) (UniProt Q07011); experiment: non-specific binding ELISA; secondary antibody alone on coated antigen
[15] = target: CD147.his; experiment: as above
[16] = target: CD22.his; experiment: as above
[17] = target: CD3.his; experiment: as above
[18] = target: CD40; experiment: as above
[19] = target: CTLA4.his; experiment: as above
[20] = target: FGFR.his; experiment: as above
[21] = target: Factor VIII; experiment: as above
[22] = target: HER3.his (Homo sapiens (Human)) (UniProt P21860); experiment: as above
[23] = target: OX40.his; experiment: as above
[24] = target: PD-1.his (Homo sapiens (Human)) (UniProt Q15116); experiment: as above
[25] = target: VEGF.his; experiment: as above
[26] = target: human serum Albumin (human) (UniProt P02768); experiment: as above
[27] = target: mouse PD-L1 on 293F cells (W315-293F.mPro1.C1) (mouse) (UniProt Q9EP73); experiment: FACS on mouse PD-L1 293F cells
[28] = target: cynomolgus monkey PD-L1 on 293F cells (W315-293F.cynoPro1.2A2) (cynomolgus monkey) (UniProt G7PSE7); experiment: FACS on cynomolgus PD-L1 293F cells
[29] = target: human PD-L1 on CHO-K1 cells (W315-CHO-K1.hPro1.C11) (human) (UniProt Q9NZQ7); experiment: FACS affinity on human PD-L1 cells, quantitative beads
[30] = target: mouse PD-L1 on 293F cells (W315-293F.mPro1.C1) (mouse) (UniProt Q9EP73); experiment: FACS affinity on mouse PD-L1 cells, quantitative beads
[31] = target: cynomolgus monkey PD-L1 on 293F cells (W315-293F.cynoPro1.2A2) (cynomolgus monkey) (UniProt G7PSE7); experiment: FACS affinity on cynomolgus PD-L1 cells, quantitative beads; design: Bmax: unit not given here
[32] = target: mouse PD-L1 on 293F cells (W315-293F.mPro1.C1) (mouse) (UniProt Q9EP73); experiment: FACS competition: antibody titrated against 5 ug/mL mouse PD-1 ECD mFc on mouse PD-L1 293F cells
[33] = target: human PD-L1 on CHO-K1 cells (W315-CHO-K1.hPro1.C11) (human) (UniProt Q9NZQ7); experiment: FACS on human PD-L1 CHO-K1 cells
[34] = target: human PD-L1 on CHO-K1 cells (W315-CHO-K1.hPro1.C11) (human) (UniProt Q9NZQ7); experiment: FACS competition: antibody titrated against 5 ug/mL human PD-1 ECD mFc on human PD-L1 CHO-K1 cells

CD40, sequence (P25942 21-193): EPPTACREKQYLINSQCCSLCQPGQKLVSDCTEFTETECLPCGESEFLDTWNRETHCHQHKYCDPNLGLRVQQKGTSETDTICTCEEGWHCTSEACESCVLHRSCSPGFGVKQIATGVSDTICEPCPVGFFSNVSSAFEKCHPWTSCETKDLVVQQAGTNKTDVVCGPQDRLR
mouse PD-L1 on 293F cells (W315-293F.mPro1.C1) (mouse), sequence (Q9EP73 19-290): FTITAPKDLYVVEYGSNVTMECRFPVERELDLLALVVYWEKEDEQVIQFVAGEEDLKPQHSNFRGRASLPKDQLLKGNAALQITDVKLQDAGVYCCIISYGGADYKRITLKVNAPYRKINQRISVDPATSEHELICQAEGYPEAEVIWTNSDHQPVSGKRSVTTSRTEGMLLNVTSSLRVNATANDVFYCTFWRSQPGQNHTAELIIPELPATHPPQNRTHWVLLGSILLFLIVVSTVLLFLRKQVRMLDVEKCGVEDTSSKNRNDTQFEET
OX40.his, sequence (P43489 29-214): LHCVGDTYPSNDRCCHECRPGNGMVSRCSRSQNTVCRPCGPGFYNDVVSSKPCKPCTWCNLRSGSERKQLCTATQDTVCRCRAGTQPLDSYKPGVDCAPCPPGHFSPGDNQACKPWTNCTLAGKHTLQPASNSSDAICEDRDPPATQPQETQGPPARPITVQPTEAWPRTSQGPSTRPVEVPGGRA
cynomolgus monkey PD-L1 on 293F cells (W315-293F.cynoPro1.2A2) (cynomolgus monkey), sequence (G7PSE7 entry or part of it): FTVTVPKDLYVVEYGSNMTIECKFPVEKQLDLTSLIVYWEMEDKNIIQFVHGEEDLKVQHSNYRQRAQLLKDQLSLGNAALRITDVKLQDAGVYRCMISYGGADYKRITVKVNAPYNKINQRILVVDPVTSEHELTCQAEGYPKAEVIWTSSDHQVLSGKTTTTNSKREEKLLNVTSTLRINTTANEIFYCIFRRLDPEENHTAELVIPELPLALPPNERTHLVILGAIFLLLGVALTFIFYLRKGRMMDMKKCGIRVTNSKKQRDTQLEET
PD-1.his (Homo sapiens (Human)), sequence (Q15116 25-170 limits assumed): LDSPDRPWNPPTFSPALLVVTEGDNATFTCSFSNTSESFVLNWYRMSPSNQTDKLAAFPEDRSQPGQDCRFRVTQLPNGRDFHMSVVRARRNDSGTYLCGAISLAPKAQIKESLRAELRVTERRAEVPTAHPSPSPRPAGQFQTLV
4-1BB.his (Homo sapiens (Human)), sequence (Q07011 24-186 limits assumed): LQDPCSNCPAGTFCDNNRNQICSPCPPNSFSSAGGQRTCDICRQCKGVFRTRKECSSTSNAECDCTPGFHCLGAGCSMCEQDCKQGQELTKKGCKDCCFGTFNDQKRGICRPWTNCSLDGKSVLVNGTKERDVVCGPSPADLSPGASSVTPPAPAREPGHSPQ
CTLA4.his, sequence (P16410 36-161): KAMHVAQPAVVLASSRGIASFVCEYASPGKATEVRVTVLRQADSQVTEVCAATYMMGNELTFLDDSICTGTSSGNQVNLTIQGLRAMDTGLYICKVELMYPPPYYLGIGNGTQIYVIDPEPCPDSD
human PD-L1 on CHO-K1 cells (W315-CHO-K1.hPro1.C11) (human), sequence (Q9NZQ7 19-290): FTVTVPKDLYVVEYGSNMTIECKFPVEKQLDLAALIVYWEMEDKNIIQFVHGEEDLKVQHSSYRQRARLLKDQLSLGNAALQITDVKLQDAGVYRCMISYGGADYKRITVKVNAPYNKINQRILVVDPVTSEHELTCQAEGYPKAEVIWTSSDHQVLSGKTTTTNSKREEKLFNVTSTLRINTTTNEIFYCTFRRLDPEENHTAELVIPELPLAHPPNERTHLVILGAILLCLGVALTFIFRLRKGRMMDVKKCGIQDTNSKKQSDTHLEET

Row | Absorbance at 450 nm [1] | Absorbance at 450 nm [2] | Absorbance at 450 nm [3] | Absorbance at 450 nm [4] | Absorbance at 450 nm [5] | Absorbance at 450 nm [6] | Absorbance at 450 nm [7] | Absorbance at 450 nm [8] | Absorbance at 450 nm [9] | Absorbance at 450 nm [10] | Absorbance at 450 nm [11] | Absorbance at 450 nm [12] | Absorbance at 450 nm [13] | EC50 [28] | Bmax [31] | Kd [31] | Substance | also measured
1 |  |  |  |  |  |  |  |  |  |  |  |  |  | 2.65 nM | 1.6e-08 | 21 nM | BMK6.hIgG4 (Benchmark antibody 6, variable region of Imfinzi conjugated with human IgG4 constant region) | 
2 | 0.07 | 0.06 | 0.06 | 0.07 | 0.25 | 0.09 | 0.13 | 0.15 | 0.07 | 0.06 | 3.29 | 0.11 | 0.41 |  |  |  | hIgG4K Isotype control (antibody) | 

The remaining lines, values behind:

Row | Substance | Absorbance at 450 nm [1] | Absorbance at 450 nm [2] | Absorbance at 450 nm [3] | Absorbance at 450 nm [4] | Absorbance at 450 nm [5] | Absorbance at 450 nm [6] | Absorbance at 450 nm [7] | Absorbance at 450 nm [8] | Absorbance at 450 nm [9] | Absorbance at 450 nm [10] | Absorbance at 450 nm [11] | Absorbance at 450 nm [12] | Absorbance at 450 nm [13] | EC50 [28] | Bmax [31] | Kd [31] | also measured
3 | hIgG4L Isotype control (antibody) | 0.06 | 0.06 | 0.06 | 0.07 | 0.24 | 0.06 | 0.13 | 0.07 | 0.06 | 0.06 | 0.05 | 0.08 | 0.41 |  |  |  | 
4 | Goat anti-human IgG Fc-HRP (Bethyl, A80-304P) (antibody) |  |  |  |  |  |  |  |  |  |  |  |  |  |  |  |  | Absorbance at 450 nm [14]: 0.05; Absorbance at 450 nm [15]: 0.05; Absorbance at 450 nm [16]: 0.05; Absorbance at 450 nm [17]: 0.05; Absorbance at 450 nm [18]: 0.24; Absorbance at 450 nm [19]: 0.05; Absorbance at 450 nm [20]: 0.13; Absorbance at 450 nm [21]: 0.06; Absorbance at 450 nm [22]: 0.05; Absorbance at 450 nm [23]: 0.05; Absorbance at 450 nm [24]: 0.05; Absorbance at 450 nm [25]: 0.06; Absorbance at 450 nm [26]: 0.37
5 | BMK8.hIgG4 (Benchmark antibody 8, variable region of Tecentriq conjugated with human IgG4 constant region) |  |  |  |  |  |  |  |  |  |  |  |  |  | 2.19 nM | 8.8e-09 | 16 nM | EC50 [27]: 1.48 nM; Bmax [29]: 3.3e-10; Kd [29]: 0.53 nM; Bmax [30]: 8.3e-10; Kd [30]: 1.7 nM; IC50 [32]: 1.45 nM
6 | BMK9.Fc(IgG1) (Benchmark antibody 9, same sequence with KN035) (Fc fusion) |  |  |  |  |  |  |  |  |  |  |  |  |  | 2.33 nM |  |  | EC50 [33]: 0.456 nM; IC50 [34]: 0.798 nM
